The record followed here is patent publication EP4628508A1 (Biodlink Biopharm Co., Ltd., dated 2025).

Test [1] deals with T1, human ILT4 expressed on the surface of CHO cells (CHO-huILT4) (human, UniProt Q8N423 22-597).
T1 construct: CHO cells infected with lentivirus lenti-huILT4; also called CHO-ILT4; CHO-huILT4 cells
Put plainly: flow cytometry on CHO-huILT4 cells. (In flow cytometry, cells or beads pass a laser one at a time.)

The target of test [2] is T2, human ILT4-ECD protein (human, UniProt Q8N423 22-460).
T2 construct: also called HuILT4; LILRB2 (ILT4)
In words: BLI (Octet RED96e), antibody on AHC biosensor, HuILT4 at 100/50/25 nM. (In BLI a coated tip is dipped into the sample, and binding shifts an interference pattern.)

Test [3] deals with T3, human LILRA1 (R&D System, Cat: 9226-T4-050) (human, UniProt O75019 17-461).
T3 construct: Bought protein; also called LILRA1 (LIR6); LIR6
Put plainly: ELISA, protein coated at 1 µg/mL, antibody at 100 nM, OD450. (In general: An ELISA detects its analyte on a solid surface through an enzyme-linked reagent.)

Test [4] has as its target T4, human ILT2-ECD protein (human, UniProt Q8NHL6 24-461).
T4 construct: also called LILRB1 (ILT2)
Described as above.

For test [5], the target named is T4, human ILT2-ECD protein. Put plainly: ELISA, human ILT2-ECD coated at 1 µg/mL.
Test [6] concerns the target T5, human LILRA4 (R&D System, Cat: 8914-T4-050) (human, UniProt P59901 24-446).
T5 construct: Bought protein; also called LILRA4 (ILT7); ILT7
In words: ELISA, protein coated at 1 µg/mL, antibody at 100 nM, OD450.

Test [7] addresses T6, human LILRB3 (R&D System, Cat: 9159-T5-050) (human, UniProt O75022 24-443).
T6 construct: Bought protein; also called LILRB3 (ILT5); ILT5
The test is described as above.

For test [8], the target named is T7, human LILRA6 (R&D System, Cat: 9088-T4-050) (human, UniProt Q6PI73 24-447).
T7 construct: Bought protein; also called LILRA6 (ILT8); ILT8
The test is described as above.

The target in test [9] is T2, human ILT4-ECD protein. The description is as above.
In test [10] the target is T8, human LILRA3 (R&D System, Cat: 9517-T4-100) (human, UniProt Q8N6C8 24-439).
T8 construct: Bought protein; also called LILRA3 (LIR4)
Described as above.

T1 sequence (Q8N423 other isoform, or with tags, fused parts or gaps limits assumed): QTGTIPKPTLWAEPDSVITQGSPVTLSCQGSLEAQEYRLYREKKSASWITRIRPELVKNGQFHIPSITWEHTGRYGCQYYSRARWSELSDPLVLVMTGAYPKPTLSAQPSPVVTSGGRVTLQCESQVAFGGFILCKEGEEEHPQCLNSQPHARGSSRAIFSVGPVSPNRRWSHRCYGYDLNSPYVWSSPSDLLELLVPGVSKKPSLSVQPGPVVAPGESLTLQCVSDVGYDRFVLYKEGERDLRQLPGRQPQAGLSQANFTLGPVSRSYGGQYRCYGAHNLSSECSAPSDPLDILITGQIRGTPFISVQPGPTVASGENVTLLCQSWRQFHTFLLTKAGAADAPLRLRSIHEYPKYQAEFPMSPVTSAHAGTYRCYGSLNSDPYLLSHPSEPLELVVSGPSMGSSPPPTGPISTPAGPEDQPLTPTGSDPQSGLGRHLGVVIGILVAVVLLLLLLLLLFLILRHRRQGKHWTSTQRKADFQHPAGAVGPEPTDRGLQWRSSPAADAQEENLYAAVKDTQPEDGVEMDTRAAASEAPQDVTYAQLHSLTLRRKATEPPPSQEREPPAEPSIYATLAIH
T2 sequence (Q8N423 other isoform, or with tags, fused parts or gaps limits assumed): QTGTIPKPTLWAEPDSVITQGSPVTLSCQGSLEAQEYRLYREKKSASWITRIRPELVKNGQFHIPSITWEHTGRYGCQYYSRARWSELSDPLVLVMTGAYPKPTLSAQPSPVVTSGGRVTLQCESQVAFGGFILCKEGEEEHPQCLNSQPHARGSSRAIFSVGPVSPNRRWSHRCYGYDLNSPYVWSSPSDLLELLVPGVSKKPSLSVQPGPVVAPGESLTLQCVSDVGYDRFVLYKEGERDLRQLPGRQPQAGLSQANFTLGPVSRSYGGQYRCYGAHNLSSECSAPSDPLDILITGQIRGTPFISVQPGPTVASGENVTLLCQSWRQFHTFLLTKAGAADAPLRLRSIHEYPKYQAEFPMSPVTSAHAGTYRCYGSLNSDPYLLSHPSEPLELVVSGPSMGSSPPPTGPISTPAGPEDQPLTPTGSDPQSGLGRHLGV
T4 sequence (Q8NHL6 24-461 limits assumed): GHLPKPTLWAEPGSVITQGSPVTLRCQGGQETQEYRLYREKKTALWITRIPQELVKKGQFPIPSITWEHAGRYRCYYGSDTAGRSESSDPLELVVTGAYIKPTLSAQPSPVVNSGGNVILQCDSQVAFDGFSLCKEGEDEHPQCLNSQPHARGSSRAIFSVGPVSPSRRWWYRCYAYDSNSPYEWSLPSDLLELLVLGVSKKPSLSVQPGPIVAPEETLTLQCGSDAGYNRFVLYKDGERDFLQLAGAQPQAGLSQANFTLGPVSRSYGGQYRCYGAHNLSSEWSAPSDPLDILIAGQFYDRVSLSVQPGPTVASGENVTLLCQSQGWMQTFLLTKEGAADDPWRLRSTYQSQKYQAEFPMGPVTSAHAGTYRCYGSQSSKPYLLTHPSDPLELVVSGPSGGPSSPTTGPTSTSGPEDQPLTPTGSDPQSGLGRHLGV
T3 sequence (O75019 17-461 limits assumed): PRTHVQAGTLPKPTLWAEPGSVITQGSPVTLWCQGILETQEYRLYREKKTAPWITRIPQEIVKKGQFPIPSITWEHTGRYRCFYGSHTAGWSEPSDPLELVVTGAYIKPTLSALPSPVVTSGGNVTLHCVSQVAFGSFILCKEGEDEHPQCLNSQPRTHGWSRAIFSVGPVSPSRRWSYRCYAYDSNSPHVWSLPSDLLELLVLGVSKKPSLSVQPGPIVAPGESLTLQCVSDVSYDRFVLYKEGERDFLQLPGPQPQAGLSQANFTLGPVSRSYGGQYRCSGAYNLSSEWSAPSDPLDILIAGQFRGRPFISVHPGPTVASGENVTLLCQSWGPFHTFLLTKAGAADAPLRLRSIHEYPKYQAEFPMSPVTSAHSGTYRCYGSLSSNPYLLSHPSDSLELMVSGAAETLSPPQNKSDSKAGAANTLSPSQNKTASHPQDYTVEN
T5 sequence (P59901 24-446 limits assumed): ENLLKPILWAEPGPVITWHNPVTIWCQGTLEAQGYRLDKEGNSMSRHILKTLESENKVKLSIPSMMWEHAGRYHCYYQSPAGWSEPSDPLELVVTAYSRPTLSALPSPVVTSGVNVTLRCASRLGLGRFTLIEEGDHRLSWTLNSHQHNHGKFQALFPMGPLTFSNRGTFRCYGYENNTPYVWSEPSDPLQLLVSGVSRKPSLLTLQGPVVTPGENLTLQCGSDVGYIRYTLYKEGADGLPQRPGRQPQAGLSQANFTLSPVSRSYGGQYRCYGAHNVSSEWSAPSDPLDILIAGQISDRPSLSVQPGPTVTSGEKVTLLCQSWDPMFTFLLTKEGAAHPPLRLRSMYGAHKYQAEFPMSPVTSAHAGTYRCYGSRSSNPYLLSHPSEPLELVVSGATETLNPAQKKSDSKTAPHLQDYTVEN
T7 sequence (Q6PI73 24-447 limits assumed): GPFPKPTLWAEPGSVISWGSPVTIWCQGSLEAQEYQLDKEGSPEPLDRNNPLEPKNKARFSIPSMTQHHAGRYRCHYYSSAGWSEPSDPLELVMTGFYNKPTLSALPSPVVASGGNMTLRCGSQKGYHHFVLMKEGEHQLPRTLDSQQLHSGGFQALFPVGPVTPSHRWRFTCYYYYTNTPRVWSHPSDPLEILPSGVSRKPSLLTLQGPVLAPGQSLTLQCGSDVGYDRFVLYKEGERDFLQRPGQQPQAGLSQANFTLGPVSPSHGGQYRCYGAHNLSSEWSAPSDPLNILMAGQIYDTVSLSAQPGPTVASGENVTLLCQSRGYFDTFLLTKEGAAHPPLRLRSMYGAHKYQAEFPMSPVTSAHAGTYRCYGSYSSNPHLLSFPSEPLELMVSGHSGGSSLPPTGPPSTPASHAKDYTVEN
T8 sequence (Q8N6C8 24-439 limits assumed): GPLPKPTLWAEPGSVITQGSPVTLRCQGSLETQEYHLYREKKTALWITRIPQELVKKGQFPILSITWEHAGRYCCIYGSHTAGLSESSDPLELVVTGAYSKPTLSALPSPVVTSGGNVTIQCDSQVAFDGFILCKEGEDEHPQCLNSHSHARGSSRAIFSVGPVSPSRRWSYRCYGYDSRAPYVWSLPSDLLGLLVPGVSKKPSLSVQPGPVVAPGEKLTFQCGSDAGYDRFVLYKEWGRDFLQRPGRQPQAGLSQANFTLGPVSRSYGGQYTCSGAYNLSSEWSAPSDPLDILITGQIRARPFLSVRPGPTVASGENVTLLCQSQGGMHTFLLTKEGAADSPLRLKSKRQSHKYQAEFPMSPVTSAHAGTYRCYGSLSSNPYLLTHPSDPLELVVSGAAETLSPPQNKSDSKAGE

B1: PR302951 (antibody, human IgG1, kappa, V domains shown)
VH: EVQLLESGGGLVQPGGSLRLSCAASRFTFSTYAMSWVRQAPGKGLEWVSSISGSGFNTYYADSVKGRFTISSDSSKNTLYLQMNSLRAEDTAVYYCAKDRQWLVSSFDYWGQGTLVTVSS
VL: DIQMTQSPSSLSASVGDRVTITCQASQDISNYLNWYQQKPGKAPKLLIYDASNLETGVPSRFSGSGSGTDFTFTISSLQPEDIATYYCQQYDNLITFGQGTRLEIKR
notes: IgG1; also called PR302951 (IgG1)
What is called EC50 is the concentration at which the effect is half-maximal. A high value points to a need for much substance. Broadly, the Kd is the concentration at which binding is half-saturated. Higher therefore signals a looser complex. Usually kon stands for a measure of how fast the partners come together. Read a high kon as fast association. B1 returned an EC50 in test [1] of 1.05 nM. In test [2], binding was put at a Kd of 0.256 nM and the kon was 915000 M⁻¹ s⁻¹.

B2: PR302702 (antibody, human IgG1, kappa, V domains shown)
VH: EVQLLESGGGLVQPGGSLRLSCAASGFTFSTYAMTWVRQAPGKGLEWVSSISGSDFNTYYADSVKGRFTISRDISKNTLYLQMNSLRAEDTAVYYCAKDQEWLVRSFHHWGQGTLVTVSS
VL: DIQMTQFPSSLFAFVGDRVTITCQASQDISNYLNWYQQKAGKAPKLLINDASNLETGVPSRFSGSGFGTDFTFTISSLQPEDFATYYCQQYENLPTFGGGTKVEIKR
notes: IgG1; also called PR302702 (IgG1)
For the molecule B2, in [1], the 50% effective concentration (EC50) turned out to be 1.58 nM.

B3: PR302282 (antibody, human IgG1, kappa, V domains shown)
VH: QVQLVESGGTVVQSGRSLRLSCAASGFTFSSYGMHWVRQAPGKGLEWVAGMWYDGNYKYYADSVKGRFTISRDNSKNTLSLQMNSLRAEDTAVYYCARDSPIGVFDYWGQGTLVTVSS
VL: DIQMTQSPSSLSASVGDRVTITCQASQDISNYLNWYQQKPGKAPKLLIYDASNLETGVPSRFSGSGSGTDFTFTISSLQPEDIATYYCQQYDNLITFGQGTRLEIKR
notes: IgG1; also called PR302282 (IgG1)
In [2], B3 registered a Kd of 0.124 nM and a kon of 648000 M⁻¹ s⁻¹.

B4: PR302949 (antibody, human IgG1, kappa, V domains shown)
VH: EVQLLESGGGLVQPGGSLRLSCAASGFTFSSYAMSWVRQAPGKGLEWVSSISGSDFSTYYADSVKGRFTISRDTSKNTLYLQMNSLRAEDTAVYYCAKDRQWLVSSFDFWGQGALVTVSS
VL: DIQMTQSPSSLSASVGDRVTITCQASQDISNYLNWYQQKPGKAPKLLIYDASNLETGVPSRFSGSGSGTDFTFTISSLQPEDIATYYCQQYDNLITFGQGTRLEIKR
notes: IgG1; also called PR302949 (IgG1)
As for B4, the EC50 in [1] worked out at 0.822 nM. In test [2], the Kd turned out to be 0.454 nM and the kon came out at 985000 M⁻¹ s⁻¹.

B5: PR301366 (antibody, V domains shown)
VH: EVQLLESGGGLVQPGGSLRLSCAASGFTFSNYAMNWVRQAPGKGLEWVSVISVSGGSTYYADSVKGRFTISRDNSKNTLYLQMNSLRAEDTAVYYCAKDYYYDSGSYYDSFFDYWGQGTLVTVSS
VL: not shown
notes: also called control antibody PR301366 (Five Prime: WO2020014132)
In test [1], B5 showed an EC50 of 1.07 nM. That is a single-digit nanomolar value.

B6: PR302950 (antibody, human IgG1, kappa, V domains shown)
VH: QVQLQESGPGLVKPSGTLSLTCAVSGGSISSSNWWSWVRQPPGKGLEWIGEVYHSGSTNYNPSLKSRVTISVDKSQNQFSLKLTSVTAADTAVYYCARVTGNKDYYYYDLDVWGQGTTVTVSS
VL: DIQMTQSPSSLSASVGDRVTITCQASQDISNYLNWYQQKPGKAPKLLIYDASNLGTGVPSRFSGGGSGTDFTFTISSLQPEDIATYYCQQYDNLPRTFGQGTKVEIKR
notes: IgG1; also called PR302950 (IgG1)
For B6, the EC50 in [1] came out at 1.09 nM.

B7: PR302264-2 (antibody, human IgG4 S228P, kappa, V domains shown)
VH: QVQLQQWGAGLLKPSETLSLTCAVYGGSLSGYYWSWIRQPPGKGLEWIGEIAHSGGTNYNPSLKSRVTISVPTSKNQFSLKLTSVTAADTAVYYCARGQQQLDWYFDLWGRGTLVTVSS
VL: EIVMTQSPATLSVSPGERATLSCRASQNIYSHLVWYQQKPGQAPRLLIYGASTRATGIPARFSGSGSGTEFTLTITSLQSEDFTVYYCQQYNDWPPITFGQGTRLEIRR
notes: PTM variant of PR302264, IgG4; also called PR302264-2 (IgG4)
Regarding B7, the binding result in test [3] was “binds”. The binding result in [4] was “binds”. Besides, in test [2], the equilibrium dissociation constant (Kd) was found to be 0.0767 nM and the kon came to 472000 M⁻¹ s⁻¹.

B8: PR302264 (antibody, human IgG1, kappa, V domains shown)
VH: QVQLQQWGAGLLKPSETLSLTCAVYGGSLSGYYWSWIRQPPGKGLEWIGEINHSGGTNYNPSLKSRVTISVPTSKNQFSLKLTSVTAADTAVYYCARGQQQLDWYFDLWGRGTLVTVSS
VL: EIVMTQSPATLSVSPGERATLSCRASQNIYSHLVWYQQKPGQAPRLLIYGASTRATGIPARFSGSGSGTEFTLTITSLQSEDFTVYYCQQYNDWPPITFGQGTRLEIRR
notes: IgG1; also called PR302264 (IgG1)
In test [2], B8 showed a Kd of 0.242 nM and a kon of 462000 M⁻¹ s⁻¹.

B9: PR302264-3 (antibody, human IgG4 S228P, kappa, V domains shown)
VH: QVQLQQWGAGLLKPSETLSLTCAVYGGSLSGYYWSWIRQPPGKGLEWIGEITHSGGTNYNPSLKSRVTISVPTSKNQFSLKLTSVTAADTAVYYCARGQQQLDWYFDLWGRGTLVTVSS
VL: EIVMTQSPATLSVSPGERATLSCRASQNIYSHLVWYQQKPGQAPRLLIYGASTRATGIPARFSGSGSGTEFTLTITSLQSEDFTVYYCQQYNDWPPITFGQGTRLEIRR
notes: PTM variant of PR302264, IgG4; also called PR302264-3 (IgG4)
For the molecule B9, the binding result in [5] was “binds”. In test [2], the Kd is 0.351 nM and the kon stood at 454000 M⁻¹ s⁻¹.

B10: PR302927 (antibody, human IgG1, kappa, V domains shown)
VH: EVQLLESGGGLVQPGGSLRLSCAASGFTFSSYAMSWVRQAPGKGLEWVSTINHIGDSTYYADSVKGRFTISRDNSKNTLYLQMNSLRAEDTAVYYCAKDQWFGVFDYWGQGTLVTVSS
VL: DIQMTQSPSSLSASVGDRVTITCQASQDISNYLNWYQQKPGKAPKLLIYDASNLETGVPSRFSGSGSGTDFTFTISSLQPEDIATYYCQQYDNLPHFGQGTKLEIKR
notes: IgG1; also called PR302927 (IgG1)
In the case of B10, the EC50 in [1] came to 0.805 nM. In test [2], this molecule came in with a Kd of 0.884 nM and a kon of 980000 M⁻¹ s⁻¹.

B11: PR302259 (antibody, human IgG1, kappa, V domains shown)
VH: EVQLLESGGGLVQPGGSLRLSCAVSGFTFSSYAMSWVRQAPGKGLEWVSAISDNAGSTYYADSVKGRFTISRDNSKNTLHLQMNSLRAEDTAVYSCAKERQWLVLGVMDAWGQGASVTVSS
VL: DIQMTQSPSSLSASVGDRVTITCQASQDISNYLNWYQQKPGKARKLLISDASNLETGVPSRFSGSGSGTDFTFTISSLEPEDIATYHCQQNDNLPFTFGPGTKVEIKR
notes: IgG1; also called PR302259 (IgG1)
As for B11, in test [2], the Kd is < 0.001 nM and the kon is 773000 M⁻¹ s⁻¹.

B12: PR302934 (antibody, human IgG1, kappa, V domains shown)
VH: QVQLQQWGAGLLKPSETLSLTCAVYGGSFSGYYWSWIRQTLGKGLEWIGEVSHSGGTNYNPSLKSRVTISVDTSKNQFSLKLSSVTAADTAVYYCARSPYYGDYMYVFDIWGQGTMVTVSS
VL: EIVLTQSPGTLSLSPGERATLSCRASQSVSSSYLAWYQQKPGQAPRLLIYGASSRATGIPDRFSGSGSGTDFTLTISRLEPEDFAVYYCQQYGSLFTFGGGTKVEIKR
notes: IgG1; also called PR302934 (IgG1)
In test [1], B12 gave an EC50 of 1.13 nM. Further, the binding result in [3], in [6], in test [7], in test [4] and in [8] was “binds” throughout. This molecule registered a Kd in [2] of 0.458 nM. This molecule returned a kon in test [2] of 694000 M⁻¹ s⁻¹.

B13: PR001795 (antibody, V domains shown)
VH: EVQLQQWGAGLLKPSETLSLTCAVYGGSFSGYYWSWIRQPPGKGLEWIGEINHAGSTNYNPSLKSRVTISVDTSKNQFSLKLSSVTAADTAVYYCARLPTRWVTTRYFDLWGRGTLVTVSS
VL: ESVLTQPPSVSGAPGQRVTISCTGSSSNIGAGYDVHWYQQLPGTAPKLLIYGDSNRPSGVPDRFSVSKSGASASLAITGLQAEDEADYYCQSFDNSLSAYVFGGGTQLTVL
notes: also called control antibody PR001795 (Merck: US20180298096); MK-4830
For B13, in [2], binding was put at a Kd of 3.52 nM and the kon worked out at 431000 M⁻¹ s⁻¹.

B14: PR302261 (antibody, human IgG1, kappa, V domains shown)
VH: EVQLLESGGGLVQSGGSLRLSCAASGFTFSSYAMSWVRQAPGKGLGWVSTISGSGGSAYYADSVKGRFTVSRDNSKKTLYLQMNSLRAEDTAVYFCAILSGDDAFDIWGQGTMVTVSS
VL: DVVMTQSPLSLPVTPGEPASISCRSSQSLLRGNGYNYLDWYLQKPGQSPQLLIYLGSNRASGVPDRFSGSGSGTDFTLKISRVEAEDVGIFYCMQALQSPLTFGGGTKVEIKR
notes: IgG1; also called PR302261 (IgG1)
Turning to B14, in test [2], the affinity, expressed as Kd, was 0.984 nM and the kon is 520000 M⁻¹ s⁻¹.

B15: PR304683 (antibody, V domains shown)
VH: QVQLVQSGAEVKKPGASVKVSCKASGYTFTDYYINWVRQAPGQGLEWMGNVNPNDGGTTYNQKFKGRVTMTTDTSTSTAYMELRSLRSDDTAVYYCARREIYFYGTIYYYAMDYWGQGTLVTVSS
VL: DIQLTQSPSFLSASVGDRVTITCRASESVDYYGNSFMYWYQQKPGKAPKLLIYFASNLESGVPSRFSGSGSGTEFTLTISSLQPEDFATYYCQQNNEDPWTFGGGTKVEIK
notes: also called Control antibody PR304683 (NGM: WO2021127200); NGM707
Regarding B15, the binding result in [3], in test [9], in test [10] and in test [4] was “binds” in each case.
